This assay concerns the target low-density lipoprotein receptor-related protein 1 (LRP1), full-length, purified from human placenta (human) (UniProt Q07954). In words: SPR; Biacore 3000; receptor amine-coupled to CM5 chip; ligand flowed in HBS-P (0.01 M HEPES pH 7.4, 0.15 M NaCl, 0.005% P20) with 1 mM CaCl2, 10 ul/min, 25 C; kinetic fit to a 1:1 Langmuir model. (In general: In SPR one partner is held on a chip, and binding of the other changes the refractive index at the surface.)

low-density lipoprotein receptor-related protein 1 (LRP1), full-length, purified from human placenta (human), sequence (Q07954 20-4544): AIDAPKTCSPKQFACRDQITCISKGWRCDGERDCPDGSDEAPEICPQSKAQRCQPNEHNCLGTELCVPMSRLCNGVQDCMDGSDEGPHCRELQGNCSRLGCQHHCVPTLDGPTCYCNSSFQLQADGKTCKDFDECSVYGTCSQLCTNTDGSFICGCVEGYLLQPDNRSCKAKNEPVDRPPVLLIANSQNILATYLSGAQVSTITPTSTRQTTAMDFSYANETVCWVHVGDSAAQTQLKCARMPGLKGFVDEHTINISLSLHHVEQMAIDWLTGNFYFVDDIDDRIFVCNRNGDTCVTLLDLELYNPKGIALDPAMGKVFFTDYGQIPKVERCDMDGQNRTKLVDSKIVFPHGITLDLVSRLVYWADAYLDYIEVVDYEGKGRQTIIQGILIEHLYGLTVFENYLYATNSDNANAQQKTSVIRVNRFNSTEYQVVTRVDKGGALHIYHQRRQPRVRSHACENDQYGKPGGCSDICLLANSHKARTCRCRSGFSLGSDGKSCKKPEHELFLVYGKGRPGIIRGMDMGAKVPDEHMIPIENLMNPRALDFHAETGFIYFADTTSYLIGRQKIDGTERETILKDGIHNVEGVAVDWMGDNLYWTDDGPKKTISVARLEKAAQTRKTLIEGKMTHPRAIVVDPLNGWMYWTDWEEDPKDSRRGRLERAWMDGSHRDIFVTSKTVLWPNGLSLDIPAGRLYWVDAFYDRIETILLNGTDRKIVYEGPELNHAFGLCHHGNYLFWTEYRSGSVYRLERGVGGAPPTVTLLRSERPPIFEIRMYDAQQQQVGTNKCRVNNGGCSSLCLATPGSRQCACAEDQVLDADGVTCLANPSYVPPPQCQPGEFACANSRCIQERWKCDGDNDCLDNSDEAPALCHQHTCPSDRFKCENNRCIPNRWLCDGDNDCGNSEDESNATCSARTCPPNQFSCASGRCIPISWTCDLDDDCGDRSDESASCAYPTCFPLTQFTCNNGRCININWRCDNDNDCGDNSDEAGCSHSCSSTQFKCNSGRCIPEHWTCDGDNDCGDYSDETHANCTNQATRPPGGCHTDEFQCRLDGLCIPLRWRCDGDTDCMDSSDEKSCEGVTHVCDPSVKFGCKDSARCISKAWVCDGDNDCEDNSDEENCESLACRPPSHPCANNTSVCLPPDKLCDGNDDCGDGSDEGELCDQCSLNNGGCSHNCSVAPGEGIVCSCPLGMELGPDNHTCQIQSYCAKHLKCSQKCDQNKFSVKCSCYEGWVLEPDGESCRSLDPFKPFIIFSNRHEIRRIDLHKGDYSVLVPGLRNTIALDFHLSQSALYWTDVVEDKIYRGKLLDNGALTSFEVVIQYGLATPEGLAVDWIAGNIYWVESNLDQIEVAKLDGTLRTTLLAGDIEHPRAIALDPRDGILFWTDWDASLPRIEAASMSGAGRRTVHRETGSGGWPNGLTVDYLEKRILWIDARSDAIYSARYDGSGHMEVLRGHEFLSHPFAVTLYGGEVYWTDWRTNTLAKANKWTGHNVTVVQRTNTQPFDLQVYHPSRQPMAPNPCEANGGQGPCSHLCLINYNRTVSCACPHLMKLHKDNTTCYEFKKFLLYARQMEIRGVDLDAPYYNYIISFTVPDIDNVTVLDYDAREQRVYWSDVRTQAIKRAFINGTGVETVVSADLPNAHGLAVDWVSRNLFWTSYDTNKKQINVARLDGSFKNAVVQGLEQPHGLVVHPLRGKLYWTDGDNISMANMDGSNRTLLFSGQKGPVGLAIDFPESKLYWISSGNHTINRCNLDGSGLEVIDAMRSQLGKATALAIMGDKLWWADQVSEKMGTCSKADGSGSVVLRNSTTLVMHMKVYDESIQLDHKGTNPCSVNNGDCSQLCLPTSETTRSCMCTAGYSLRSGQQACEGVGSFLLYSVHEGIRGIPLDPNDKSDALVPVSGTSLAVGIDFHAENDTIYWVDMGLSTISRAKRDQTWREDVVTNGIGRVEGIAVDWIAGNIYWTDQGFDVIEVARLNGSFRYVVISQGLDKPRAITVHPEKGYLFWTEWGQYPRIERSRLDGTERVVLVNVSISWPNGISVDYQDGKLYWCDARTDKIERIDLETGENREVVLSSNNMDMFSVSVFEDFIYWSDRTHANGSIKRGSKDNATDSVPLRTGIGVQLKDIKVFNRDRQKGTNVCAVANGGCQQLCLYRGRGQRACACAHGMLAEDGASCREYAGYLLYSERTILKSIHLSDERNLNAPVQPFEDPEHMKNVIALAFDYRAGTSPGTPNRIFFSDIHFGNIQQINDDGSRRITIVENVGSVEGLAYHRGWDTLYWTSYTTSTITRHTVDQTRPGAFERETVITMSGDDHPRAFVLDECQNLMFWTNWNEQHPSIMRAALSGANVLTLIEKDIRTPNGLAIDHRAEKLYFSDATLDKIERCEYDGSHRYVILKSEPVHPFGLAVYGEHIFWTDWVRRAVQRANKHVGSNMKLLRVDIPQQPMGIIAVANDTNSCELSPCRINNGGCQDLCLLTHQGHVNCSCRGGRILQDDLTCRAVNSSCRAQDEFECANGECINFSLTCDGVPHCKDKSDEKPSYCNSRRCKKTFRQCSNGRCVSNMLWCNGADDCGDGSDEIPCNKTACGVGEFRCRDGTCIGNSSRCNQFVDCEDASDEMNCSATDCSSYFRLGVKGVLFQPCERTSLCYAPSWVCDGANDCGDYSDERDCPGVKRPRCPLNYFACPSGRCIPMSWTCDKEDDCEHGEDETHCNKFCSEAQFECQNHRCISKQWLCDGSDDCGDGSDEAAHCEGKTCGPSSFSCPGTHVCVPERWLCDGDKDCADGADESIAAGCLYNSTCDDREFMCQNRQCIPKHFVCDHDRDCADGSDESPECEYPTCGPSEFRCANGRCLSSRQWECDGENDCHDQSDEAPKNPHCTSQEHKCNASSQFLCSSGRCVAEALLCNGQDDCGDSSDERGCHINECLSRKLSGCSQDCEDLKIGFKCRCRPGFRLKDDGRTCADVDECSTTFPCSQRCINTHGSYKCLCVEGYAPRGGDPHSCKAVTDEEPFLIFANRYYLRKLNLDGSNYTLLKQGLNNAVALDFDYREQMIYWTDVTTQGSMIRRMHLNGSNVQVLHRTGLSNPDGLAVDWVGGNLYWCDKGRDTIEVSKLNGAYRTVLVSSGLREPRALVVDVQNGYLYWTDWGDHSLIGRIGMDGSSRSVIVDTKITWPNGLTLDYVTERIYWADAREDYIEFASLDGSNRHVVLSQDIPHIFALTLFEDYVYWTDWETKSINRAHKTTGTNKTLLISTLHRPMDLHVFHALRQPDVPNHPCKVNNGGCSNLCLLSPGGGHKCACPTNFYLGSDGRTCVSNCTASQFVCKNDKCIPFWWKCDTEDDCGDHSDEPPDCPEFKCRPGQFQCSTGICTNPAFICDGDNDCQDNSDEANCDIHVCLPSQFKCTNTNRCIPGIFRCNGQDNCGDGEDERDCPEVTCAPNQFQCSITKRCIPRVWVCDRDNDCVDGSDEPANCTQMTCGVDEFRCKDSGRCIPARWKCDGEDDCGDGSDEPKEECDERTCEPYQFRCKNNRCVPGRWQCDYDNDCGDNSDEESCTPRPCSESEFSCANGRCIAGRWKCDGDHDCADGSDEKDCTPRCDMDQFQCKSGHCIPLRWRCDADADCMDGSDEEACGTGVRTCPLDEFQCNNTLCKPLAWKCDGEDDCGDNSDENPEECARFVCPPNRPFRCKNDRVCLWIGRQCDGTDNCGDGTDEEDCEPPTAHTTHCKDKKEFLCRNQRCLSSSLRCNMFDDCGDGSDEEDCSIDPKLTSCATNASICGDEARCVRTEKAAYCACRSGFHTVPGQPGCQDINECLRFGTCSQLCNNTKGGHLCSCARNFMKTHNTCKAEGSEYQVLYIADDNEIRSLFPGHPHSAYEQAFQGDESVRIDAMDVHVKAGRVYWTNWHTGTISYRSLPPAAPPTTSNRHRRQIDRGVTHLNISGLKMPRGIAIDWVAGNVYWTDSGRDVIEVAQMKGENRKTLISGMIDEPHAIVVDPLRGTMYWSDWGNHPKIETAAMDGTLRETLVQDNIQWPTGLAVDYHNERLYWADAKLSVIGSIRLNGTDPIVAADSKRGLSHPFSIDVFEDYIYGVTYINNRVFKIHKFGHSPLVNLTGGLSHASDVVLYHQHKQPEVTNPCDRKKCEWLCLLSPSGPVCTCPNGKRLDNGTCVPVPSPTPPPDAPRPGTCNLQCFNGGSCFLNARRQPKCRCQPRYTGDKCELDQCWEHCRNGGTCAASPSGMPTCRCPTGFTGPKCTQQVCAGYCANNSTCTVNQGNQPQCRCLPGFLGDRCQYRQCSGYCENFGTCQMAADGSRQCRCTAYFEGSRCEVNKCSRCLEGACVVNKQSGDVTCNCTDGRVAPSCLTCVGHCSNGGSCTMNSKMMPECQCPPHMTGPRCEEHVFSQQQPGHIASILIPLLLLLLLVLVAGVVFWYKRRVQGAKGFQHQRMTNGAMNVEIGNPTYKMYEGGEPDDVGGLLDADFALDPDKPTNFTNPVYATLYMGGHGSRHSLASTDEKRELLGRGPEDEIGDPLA

The term Kd denotes the concentration at which binding is half-saturated. As usually defined, the koff is the first-order rate constant of dissociation. A word on the kon: it is the second-order rate constant of association. Substance “SARS-CoV-2 trimeric spike protein, stabilized in prefusion conformation (from UniProt P0DTC2 14-1273) (natural protein)” returned a dissociation constant (Kd) of 72 nM, a koff of 0.00034 s⁻¹ and a kon of 4800 M⁻¹ s⁻¹.

Values taken from paper PMC12192683.
